Laboratory results published in PMC9618068.

Experiments:
[1] = target: actin (ATP-G-actin from chicken skeletal muscle) (chicken) (UniProt P68139); experiment: ITC
[2] = target: actin (ATP-G-actin from chicken skeletal muscle) (chicken) (UniProt P68139)

Row | Substance | stoichiometry N [1] | Pi released from actin in the presence of F1^15-160, compared to F1A [2] [%]
1 | fragmin domain-1 (F1) (residues 1 to 160) (domain or fragment) | 0.956 | –
2 | F1^15-160, an N-terminally truncated version of F1 that lacks Asn13 (domain or fragment) | – | 25
